Measured values reported in the DeepSol protein solubility set.

Test: soluble on expression in E. coli; label from the status in PepcDB or PDB records

Sequence | soluble on expression in E. coli
MQKKEKEGRRKLKYDSNDGLLPEIRRVCGFPHHISEELSARGSGKKKKQVEEEWKWPEAQICGICSSGGNILCCEQCPASFHLACIGYESSDLPDDNFYCNRCRNLPENVRLFPPEKCSPSVNPVLRVENENHRNWEAIEYHCNRLRDEEQAEKMKKDVAYGPKSEFAEIQDCFRDKNLLKALGMANPMDYTIPPEFQADRDCFSGDAMEDKRPTIMGEVCAECNLKDDWTRMLKCDFCDLIWHQKCVTPPLIHVRAYFYWMCPRHPETVIDSVLIGDEISREDRRRLYDKYADVEPSYEIFEEFCIKTEQFRMKSEVFDSEEMYYDPEEASTSFMQTVIKPRQTSRKTTGRSASKKKSNGRFFASSWDFPGLSSRETSPSRKNSRKSPDSVATERKDRVLDKIDKKRSIKLTEEEIIMSIMPVEESSRAEYLTQKMLGTDIEQSTNFFNRHSAMIDRIRAFYGNLPEKELIKLMREDLDPVETIRGGGTQSIISQNEKPYRKKLKADVEVLIQHVGLGTDSTERHFNSIGTEAFYRRCAPPVTARNVLNQKTLREVVLNSQKEAHEGAGVYEYHAEPEQLENLVLLAYEPSFESPEDRDTYFVPSMTIWSKEPICALTRKWAASGASKQAPPSSSSSEAPSVEAEVKEEVVEEEDEENEARMRRESTATSSIVYNNDTGPLEFIEENMPPPAATITEKSDPFDFSSLEMPEIHEKAETVYEAEGYYGESDDLPLDLRRTKSESDLVDRIIWPLVRSALQNFIRREDCHQMHLEHNYSSLYQTHDSDEENQPVVEVEKLITYEEYQENLYSAEFASPQTPPPIPPPPAVYYDNFSDAPRKRGRPVGSRNRKEGDTTIPKQQRKRNPQPVGRGRGRGGGRPRGSRSSRGSMDDGGGSRRHSTASDANESAELLNQPVTKQLRDEIKEIKLKYTKMMMDRGFEQAKDEYFRNRDAALSKWTPEQWKEHNEQCVAARLSSLIPYDQRYFLPTQRVLARLDLEDGDLRLPAVHLPIAIQRCVTKLGTAHDCHVRCDKLTGDAWCSVLADYHCDIVRDYYSDNFYISTLGTEAVFVDGRAVRRPRLTPFEAAEKLRTRGSSTIIPPHIKCRCQKHSDLQISRQESTGELVRCGILKLEHGARIQIGCVAFIFSRI | not soluble
SSRHVFLTGPPGVGKTTLIQKAIEVLQSSGLPVDGFYTQEVRQEGKRIGFDVVTLSGAQGPLSRVGSQPLPGKPECRVGQYVVNLDSFEQLALPVLRNAGSSCGPKHRVCIIDEIGKMELFSQPFIQAVRQMLSTPGIIVVGTIPVPKGKPLALVEEIRKRRDVKVFNVTRDNRNSLLPDIVAVVQSSRT | soluble
VPGVWSPPCPTTPRVGVVAALVAATLTGCGSGDSTVAKTPEATPSLSTAHPAPPSSEPSPPSATAAPPSNHSAAPVDPCAVNLASPTIAKVVSELPRDPRSEQPWNPEPLAGNYNECAQLSAVVIKANTNAGNPTTRAVMFHLGKYIPQGVPDTYGFTGIDTSQCTGDTVALTYASGIGLNNVVKFRWNGGGVELIGNTTGG | soluble
MGHHHHHHSHRSIGLKVGLEIHQQLDTREKLFCSCPAELGEEEHDEFVRQLRPTRSELGDVDPAALFEWRKGRLYIYQAPLNHSCLVEADEEPPHPINREAVAVAVAVAKALGSAIVDEVHVMRKTVIDGSNTSGFQRTAIVALGGSIRVGSKEVPIETIVIEEDAARKVGEKGRYVVYRLDRLGIPLIEIATAPVIESPGEAREVALAIGTMLRLTGKVKRGLGTIRQDLNVSIRGGAKTEIKGVQRLELIPRVIEYEVLRQLSLLRIR | not soluble
MSLKIAIVNDMPMAVEALRRALAFDPSHEVVWVATNGAEAVKYCAELTPDLILMDLIMPVMDGVEATRRIMAESPCAIVIVTVDRQQNVHRVFEAMGHGALDVVDTPALGAGNAQEAAAPLLRKILNIGWLIGQRGSRVRSAPQPLRSGAPRQSLVAIGSSAGGPAALEVLLKGLPKDFAAAIVLVQHVDQVFAAGMAEWLSSASGLEVRLAREGEPPQSGKVLLAGTNHHIRLLKNGTLAYTAEPVNEIYRPSIDVFFESVASFWNGDAVGVLLTGMGRDGAQGLKLMRDQGYLTIAQDQNSSAVYGMPKAAAAIGAASEIRPLDKIAPRLLEIFAKEGHHHHHH | soluble
MYQEIKGVRVWGDPIENAVDQAVTCAQHGDVEQVLLMADHHKGYSQPVGGVVVYRNQISPSGVGYDIACGNKAVKTNVKYVDIKDQLSKIMDELAQSISFGVGRSNREKVEHDLFDDSDWSVYQEIGKQEHDNLKTLAKKQLGTVGSGNHFVDLFVEEATGDVWVANHFGSRGFGHKTASGFMNLAKGVKFSDKVKGERMEDAPTLLDLDSEIGDMYYRAMQLAGKYAYAGRDYVIQKVLDILQAEAVFSVHNHHNFAWKETHNGEEYVIVRKGATPSAPNQWGFIGGSMGDISVIVRGVDSEENRDAFYSTVHGAGRIMSRTEAAGKMNWKTRTRSGGKITPDQMKQAIKEYGVELRGGGTDESPFVYKNLADVLEAHKQTLSIEHVLKPIGVCMAGEGEFDPYKDMAGDPLEHHHHHH | soluble
MASGASATQRIPSKRQTLDEAYAPPANFLEIEVINPITHGVGKMRYTDYEIRMRSNLPVFKQKESSVRRRYSDFEWVRAELERDSKIVVPTLPGKSFKRQLPFRSDDGIFEEEFIENRRKALELFINKVAGHPLAQNERSLHIFLQEPTIDKNYVPGKIRTA | soluble
MKIMILGIDIGGANTKITEIEGDNYKIHHIYFPMWKKKDELEDLLKNYNDNVDYVALVMTAELADCYKTKKEGVEDIIDKVEKAFNCPVYVFDVNGNFLTSEEAKKNYLDVSASNWNATAKFVAEFIKDSCILVDMGSTTTDIIPIKDKEVLAEKTDLDRLMNNQLVYVGTLRTPVSFLANKIEFRGKLTNLSSEYFAITADISLILNKITEEDYTCDTPDGAGKDFESCLTRLVRVLCADREMVKDDELIDFANKLYNKLLELIRENVDTIAKRYNLNDVVITGLGEEILKDALDEYNIISIKETYGKDVSLATPSFAVAKLLQKQLDKLEHHHHHH | not soluble
LDVAKSLDQGLVDRMLQSNTGTDSCPKRLPKGIDSVTLDKIRDLFVGEAALTADEAGEKIGASRTTARRYLEYLISSGELEADLNYGTVGRPERCYKKVIR | not soluble
MSLAVTLKDVAEACGVSYSTVSKALKNSQLVKPNTKQMIQQKALEMNYIPNHSARALVSKKSGTIGLIWPSVDRVAVTHLITEINLAIKSLGYVMFVSIDDVAAASKKFVEFGCDGIIIFDEDETTNLPPEIYNNVPVVAYGVDRDIPYPIVNVNHAEAMIIAIKELLAKGIDRIDYIGDIHTNDARQIAKKDAIANYCEQHHIQYRMIDSSGLNAIEAETSVKHFLQESSLAPGVICGSYDITVGTINAMGSDEQPIIYSYDNIPQIKKIDYPVQAIGVPTAEIAQQVVAILDKVIKGEPIENTYHLHPSLSHNQEGHHHHHH | soluble
MGSDKIHHHHHHMSFFNKIILIGRLVRDPEERYTLSGTPVTTFTIAVDRVPRKNAPDDAQTTDFFRIVTFGRLAEFARTYLTKGRLVLVEGEMRMRRWETPTGEKRVSPEVVANVVRFMDRKPAETVSETEEELEIPEEDFSSDTFSEDEPPF | soluble
MKDTLKIGLLGLGTVGTGVLTLLKEHQEKISQVTGMNVVIEKAFVRNLETKQAQAEEYGLSLTTSIDDILEDKEIQIVVELMGTIEPAKTYIMKALEKGKHIVTANKDLLAQHGSELVALAQKHHCDLYYEASVAGGIPILRTIANSLAADNIQQVLGIVNGTTNYMLTQMVSADKSYEEALAEAQALGFAEADPTNDVDGIDAAYKMVILSQFAFGMNVSLPQVDIRGIRGLSLDDVAMAKQLGYEIKLIGSAEQNENSISVEVAPMLVNQKHPIASVRNEYNAVFIKSAGVGESMYYGPGAGAKPTATSVVSDLITIAKNIRLATTGHMFNSYQHKTQLTSSENVFGQYYFSLDVPDTPGQFLQLTQLMTKAEVSFDQLVQQKSDGQRARIVAITHQISKAQMQQVVIAIQNTEAFQLLNVMKVIGDE | not soluble
MGSDKIHHHHHHMDIRSLKMYLHLCDSLHFAKTAEQSHVSPSTLSRALQRLEDEVGSKLFDRDNRSVTITHAGVEFKRFAEQTLSEWTQLRSRIDPSQQFLRGNLNLYCSVTAAYSHLPALLDRFRREHPHVDINLNTGDPANAVNQIQKNRADIAIIALPEAFPSSLHFTPIDKVPISVIAPTIQCQVQQWVSQAKIDWAKLPYIVPDHGPGRKRIDLWFKQMGIKPNIYAQVSGQEAIVSMVALGCGVGISPEAVIHNSPVRDRIQTLASPIPIPPFELGCCCKEKRTNDPIIRAFLDII | not soluble
VVCREASHAGSWYTASGPQLNAQLEGWLSQVQSTKRPARAIIAPHAGYTYCGSCAAHAYKQVDPSITRRIFILGPSHHVPLSRCALSSVDIYRTPLYDLRIDQKIYGELWKTGMFERMSLQTDEDEHSIEMHLPYTAKAMESHKDEFTIIPVLVGALSESKEQEFGKLFSKYLADPSNLFVVSSDFCHWGQRFRYSYYDESQGEIYRSIEHLDKMGMSIIEQLDPVSFSNYLKKYHNTICGRHPIGVLLNAITELQKNGMNMSFSFLNYAQSSQCRNWQDSSVSYAAGALTVH | soluble
MKYIVNKSHNPAFNIALEAYAFRELVEEDELFILWINEPAIIIGKHQNTIQEINKEYIDEHGIHVVRRLSGGGAVYHDLNNLNYTIISNKTAEGAFDFKTFSQPVIATLADLGVTANFTGRNDIEIDGKKICGNAQAYYKGRMMHHGCLLFDVDMTVLGDALKVSKDKIESKGVKSVRARVTNILNELPEKITVEEFSDKILAKMKETYPDMTEYVLSEDELAKIEQSAKEQFGSWDWTYGKAPEYTIERNVRYPAGKISTFANVENSIIKNLKIYGDFFGIKDVQDIENLLIGCKYEYRDVFERLKTIDTTQYFSRMTVEEVAKAIVS | not soluble
MAHHHHHHMAQEISNLVKKYNVTWQQTMLRIYDPKETVEFYEKNFGMINIHTYHFNEYNFSLYFLITPPYDEEERKKLPEPNTKESEKYLWNLNTVCLELTYNHNSQEKLSNGNNENDRGFGHIAFNCNDVIEQCDNLFKKNVKFHKLPHETKMKTIGFALDPNNYWIEIVKRSNQVKWKNYKNITNFSQTMIRVKNPEKSLYFYIHILGMKLIHVKHCSDFSLYFLKSNYACAENNKEMIEDQSNKNTNEIYDFNSLKNSYQTDEDYENFKQSWEPVLELTHNHGTEDDDNFSYHNGNTEPRGFGHIGFLVNDLENYCKELETLNVTFKKKVTEGLMKNIAFIYDPDNYVIELIQRDTSFIAK | soluble
MFPCLCTLKILTFQPKFQKIHDEMKALKAAGKQDEFAKKFVTKDAIFMGPLHEPANVTEAAKFAKSEMMAAVSKGEFNITIDEITPIGDVVIERCTIHAKVASGDKTGWSLCVWVKDGGAWKIRNSCTTFKVVPSA | not soluble
MKERFMSKFAIVFPGQGSQAVGMLADLAEQYAVVKQTFAEASEVLGYDLWALVQDGPVEDLNQTFRTQPALLAASVAIWRVWQQLGLEQPAVLAGHSLGEYSALVCAGVIDFKQAIKLVELRGQLMQQAVPAGTGAMYAIIGLEDEAIAKACADAAQGEVVSPVNFNSPGQVVIAGQKDAVERAGVLCKEAGAKRALPLPVSVPSHCALMKPAADELAKTLAELEFNAPQIPVINNVDVVAETDPVKIKDALIRQLYSPVRWTECVEQMSAQGVEKLIEMGPGKVLTGLTKRIVKTLEGVAVNDVASLDAVK | soluble
MGHHHHHHSHMANVLCNRARLVSYLPGFCSLVKRVVNPKAFSTAGSSGSDESHVAAAPPDICSRTVWPDETMGPFGPQDQRFQLPGNIGFDCHLNGTASQKKSLVHKTLPDVLAEPLSSERHEFVMAQYVNEFQGNDAPVEQEINSAETYFESARVECAIQTCPELLRKDFESLFPEVANGKLMILTVTQKTKNDMTVWSEEVEIEREVLLEKFINGAKEICYALRAEGYWADFIDPSSGLAFFGPYTNNTLFETDERYRHLGFSVDDLGCCKVIRHSLWGTHVVVGSIFTNATPDSHIMKKLSGN | not soluble
